Data from article PMC7949049 (The Journal of Biological Chemistry, 2020).
Read-outs that look alike come from different tables or passages of the source. Each block holds one molecule with its values, some of them ahead of it. Positions of bridges follow the written chain, without caps; N, C: chain ends. Non-standard residues stand in square brackets, D forms with d. Residues, ends and D or L forms follow the SMILES beside them. No end group written: not given here. *: point of attachment. 5FAM = O=C1OC2(c3ccc(O)cc3Oc3cc(O)ccc32)c2ccc(C(=O)*)cc21; S5 = C=CCCC[C@](C)(N)C(=O)O

Key:
[1] = biological target: T1, RhoA·GMPPNP (Homo sapiens, UniProt P61586, F25N/Q63L); test: Direct-binding fluorescence polarization, RhoA; conditions: 20 nM FAM-labelled non-solubilized peptide; n ≥ 2; ± standard error from curve fitting; read-out: Kd RhoA, FP (Table S1)
T1 construct: RhoA (pGEX-2T, 1–186, F25N/Q63L); GST (cleaved yes); made in house
T1 sequence (P61586 1-186 F25N/Q63L): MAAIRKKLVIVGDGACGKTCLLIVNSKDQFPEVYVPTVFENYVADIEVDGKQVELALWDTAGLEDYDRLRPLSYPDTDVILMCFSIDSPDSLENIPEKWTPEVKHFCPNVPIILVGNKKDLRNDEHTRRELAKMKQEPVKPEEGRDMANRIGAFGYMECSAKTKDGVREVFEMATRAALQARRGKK
Experimental: (§1) FP experiments were performed on a BMG Labtech Pherastar fluorimeter at 298 K with excitation at 485 nm and emission at 520 nm as described previously ([34]), using 20 nM FAM-labeled peptide. Plates were read after 30 min incubation at room temperature. Data were fitted to a single-site binding model using nonlinear regression analysis in GraphPad prism 8.4 to obtain Kd values and their standard errors.

[2] = biological target: T2, Cdc42 (Homo sapiens, UniProt P60953, Q61L); test: Direct-binding fluorescence polarization, Cdc42; conditions: 20 nM FAM-labelled non-solubilized peptide; n ≥ 2; ± standard error from curve fitting; read-out: Kd Cdc42, FP (Table S1)
T2 construct: Cdc42 (pGEX-2T, 1–184, Q61L); GST (cleaved yes); made in house
T2 sequence (P60953 1-184 Q61L, species assumed): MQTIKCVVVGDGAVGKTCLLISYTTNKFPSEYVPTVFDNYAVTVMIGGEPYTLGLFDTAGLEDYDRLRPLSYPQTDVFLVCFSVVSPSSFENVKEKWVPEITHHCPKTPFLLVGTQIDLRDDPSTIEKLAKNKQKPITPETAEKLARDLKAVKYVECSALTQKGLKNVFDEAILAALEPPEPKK
Experimental: as §1

[3] = biological target: T3, RalA·GTP (Homo sapiens, UniProt P11233, Q72L); test: Competition SPA, RalA against immobilized His-tagged wild-type RLIP76 RBD; type: binding
T3 construct: RalA (pMAT10, residues 1–184, Q72L); His6-MBP (cleaved yes); made in house; host or cells: E. coli (inferred from the pMAT10/pGEX vectors)
T3 sequence (P11233 1-184 Q72L): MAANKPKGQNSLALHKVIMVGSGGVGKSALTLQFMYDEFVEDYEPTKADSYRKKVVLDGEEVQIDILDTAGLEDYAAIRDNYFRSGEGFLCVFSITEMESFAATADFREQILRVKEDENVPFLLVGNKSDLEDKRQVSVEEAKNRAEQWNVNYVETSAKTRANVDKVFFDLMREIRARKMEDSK

[4] = system: V5-RalB Q72L / flag-RLIP76 complex; test: Coimmunoprecipitation of RalB/RLIP76 in HEK293T cell lysate; type: biochemical; conditions: V5-RalB Q72L and flag-RLIP76, peptide 1 h at 4 °C, anti-V5 IP, western blot
Experimental: (§2) 3 × 10^6 HEK293T cells were seeded in 10 cm dishes 48 h before the end point, in DMEM supplemented with 10% FBS. […] Dishes were lysed in 1 ml lysis buffer (50 mM Tris-HCl pH 7.8, 150 mM NaCl, 1% Triton, 1 mM EDTA, 1 mM sodium orthovanadate, 1 mM β-glycerophosphate, and protease inhibitor cocktail (Sigma-Aldrich). Lysates (1 ml) were centrifuged at 17,000g for 20 min and added to Protein G Dynabeads (30 μl, Invitrogen) preincubated with anti-V5 antibody (1 μg, R960-25, Invitrogen). Peptides, at the concentrations indicated in the results, were added and incubated with rotation for 1 h at 4 °C. Precipitated complexes were washed with lysis buffer (3 × 500 μl). Samples were resolved by SDS-PAGE and transferred to PVDF membranes (Immobilon-P). Membranes were probed by immunoblotting with the following primary antibodies: anti-V5-HRP (R961-25, Invitrogen), anti-flag-HRP (A8592, Sigma-Aldrich), and anti-Sec5 (EPR9420, Abcam).

[5] = system: V5-RalB Q72L / endogenous Sec5 complex; test: Coimmunoprecipitation of RalB/Sec5 in HEK293T cell lysate; type: biochemical; conditions: peptide 1 h at 4 °C, anti-V5 IP, western blot
Experimental: as §2

[6] = biological target: SP1 stapled peptide (RLIP76) 423-446 (Homo sapiens) (UniProt Q15311); conditions: cited from earlier work
Chain of SP1 stapled peptide (RLIP76) 423-446 (Homo sapiens) (Q15311 423-446): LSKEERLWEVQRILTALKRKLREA

[7] = biological target: SP1 stapled peptide (RLIP76) 423-446 (Homo sapiens) (UniProt Q15311); conditions: cited from earlier work; remark: listed apart in the source
[8] = biological target: SP1 stapled peptide (RLIP76) 423-446 (Homo sapiens) (UniProt Q15311); conditions: cited from earlier work; remark: listed apart in the source
[9] = biological target: RalA (Homo sapiens) (UniProt P11233); conditions: cited from earlier work
[10] = biological target: R-Ras (Homo sapiens) (UniProt P10301); conditions: cited from earlier work
Chain of R-Ras (Homo sapiens) (P10301 1-215): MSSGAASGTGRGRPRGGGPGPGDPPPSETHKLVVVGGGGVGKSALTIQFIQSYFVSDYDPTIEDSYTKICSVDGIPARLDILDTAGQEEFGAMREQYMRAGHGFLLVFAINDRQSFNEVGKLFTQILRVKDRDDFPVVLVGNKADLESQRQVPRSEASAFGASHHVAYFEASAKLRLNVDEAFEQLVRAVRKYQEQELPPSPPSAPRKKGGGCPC

[11] = biological target: RalB (Homo sapiens) (UniProt P11234); conditions: cited from earlier work
[12] = biological target: T4, RalA (residues 1–184, Q72L) (UniProt P11233 1-184, Q72L); test: scintillation proximity assay (competition); GST-tagged Sec5 RBD immobilised on SPA beads, fixed [3H]-GTP RalA, peptides or RLIP76 RBD titrated; pure competition model, apparent Kd (Ki); conditions: both partners purified
T4 construct: RalA small GTPase, residues 1-184, constitutively active Q72L; Loaded with [3H]GTP for SPA, with GMPPNP or GDP for fluorescence polarisation; also called RalA·GTP; [3H]-GTP RalA; source: expressed from pMAT10 as His6-MBP fusion, cleaved from its tag as described previously
T4 sequence (looked up): T3 sequence (P11233 1-184 Q72L)

[13] = biological target: T4, RalA (residues 1–184, Q72L); test: scintillation proximity assay (competition); His-tagged wild-type RLIP76 RBD immobilised on SPA beads, fixed [3H]GTP·RalA (100 nM) or [3H]GTP·RalB (250 nM), competitor RBD or peptide titrated; pure competition model, apparent Kd (Ki); conditions: both partners purified
[14] = biological target: T4, RalA (residues 1–184, Q72L); test: fluorescence polarisation; 20 nM FAM-labeled peptide, varying concentrations of GMPPNP-bound small GTPases, 298 K, single-site model; conditions: both partners purified
[15] = biological target: T5, RalB (residues 1–185, Q72L) (UniProt P11234 1-185, Q72L); test: as above; conditions: both partners purified
T5 construct: Loaded with [3H]GTP for SPA, with GMPPNP for ITC, FP and crystallisation; also called RalB·GTP; source: expressed from pMAT10 as His6-MBP fusion, cleaved from its tag as described previously
T5 sequence (looked up): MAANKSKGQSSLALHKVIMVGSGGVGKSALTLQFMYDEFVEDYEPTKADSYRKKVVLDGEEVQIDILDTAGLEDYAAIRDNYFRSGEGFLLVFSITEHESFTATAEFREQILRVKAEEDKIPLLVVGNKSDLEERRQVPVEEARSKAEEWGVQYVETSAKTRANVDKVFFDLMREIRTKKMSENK

[16] = biological target: RalA (residues 1–184, Q72L) (UniProt P11233); test: scintillation proximity assay (competition); His-tagged wild-type RLIP76 RBD immobilised on SPA beads, fixed [3H]GTP·RalA (100 nM) or [3H]GTP·RalB (250 nM), competitor RBD or peptide titrated; pure competition model, apparent Kd (Ki)
[17] = biological target: T5, RalB (residues 1–185, Q72L); test: as above; conditions: both partners purified

Kd [1]: 0.0125 ± 0.0022 µM | Kd [2]: 6.11 ± 1.67 µM
Molecule: CC[C@H](C)[C@H](NC(=O)[C@H](CCCNC(=N)N)NC(=O)[C@H](CC(C)C)NC(=O)[C@@H](NC(=O)[C@H](CCC(=O)O)NC(=O)[C@H](Cc1c[nH]c2ccccc12)NC(=O)[C@H](CC(C)C)NC(=O)[C@]1(C)CCCC=CCCC[C@](C)(NC(=O)[C@H](CC(C)C)NC(=O)c2ccc3c(c2)C(=O)OC32c3ccc(O)cc3Oc3cc(O)ccc32)C(=O)N[C@@H](CCCCN)C(=O)N[C@@H](CCC(=O)O)C(=O)N[C@@H](Cc2c[nH]cn2)C(=O)N1)C(C)C)C(=O)N[C@@H](CC(C)C)C(=O)N[C@H](C(=O)N[C@@H](C)C(=O)N[C@@H](CC(C)C)C(=O)N[C@@H](CCCNC(=N)N)C(=O)N[C@@H](CCCNC(=N)N)C(=O)N[C@@H](CCCCN)C(=O)N[C@@H](CC(C)C)C(=O)N[C@@H](CCCNC(=N)N)C(=O)N[C@@H](CCC(=O)O)C(=O)N[C@@H](C)C(N)=O)[C@@H](C)O [HLR-SP1] (5FAM-L[S5]KEH[S5]LWEVLRILTALRRKLREA-NH2; staple 2-6)

Kd [3]: > 100 µM | Kd RalA·GTP, Competition SPA (RLIP76) ([3]; peptides titrated into [3H]-GTP RalA (100 nM) and His-tagged wild-type RLIP76 RBD on SPA beads, apparent Kd (Ki), ± standard error from curve fitting): very weak binding
Molecule: CC[C@H](C)[C@H](NC(=O)[C@H](CCCNC(=N)N)NC(=O)[C@H](CCC(N)=O)NC(=O)[C@H](CCC(=O)O)NC(=O)[C@H](CCC(=O)O)NC(=O)[C@H](C)NC(=O)[C@H](CC(C)C)NC(=O)[C@]1(C)CCCC=CCCC[C@](C)(NC(=O)[C@@H](N)CC(C)C)C(=O)N[C@@H](CCCCN)C(=O)N[C@@H](CCC(=O)O)C(=O)N[C@@H](CCC(=O)O)C(=O)N1)C(=O)N[C@@H](CCCCN)C(=O)N[C@H](C(=O)N[C@@H](C)C(=O)N[C@@H](CCC(=O)O)C(=O)N[C@@H](CCCCN)C(=O)N[C@@H](CCCNC(=N)N)C(=O)N[C@@H](CCCCN)C(=O)N[C@@H](CCCCN)C(=O)N[C@@H](CCCNC(=N)N)C(=O)N[C@@H](CCC(=O)O)C(=O)N[C@@H](C)C(N)=O)[C@@H](C)O [W430A-sol] (H-L[S5]KEE[S5]LAEEQRIKTAEKRKKREA-NH2; staple 2-6; N-terminus assumed)
disruption of RalB–RLIP76 complex in cell lysate [4]: did not inhibit complex formation | disruption of RalB–Sec5 complex in cell lysate [5]: did not inhibit complex formation

Molecule: R-Ras (from UniProt P10301)
Kd [6]: 30 µM

Molecule: RalA (from UniProt P11233)
Kd [7]: 14 µM

Molecule: RalB (from UniProt P11234)
Kd [8]: 5 µM

Molecule: SP1 stapled peptide 423-446 (from UniProt Q15311)
Kd [9]: 14 µM | Kd [10]: 30 µM | Kd [11]: 5 µM

Kd [12]: 1.81 µM | Kd [13]: 3.09 µM
B1: L-sol stapled peptide (peptide)
chain: L[S5]KEE[S5]LWEELRIKTAEKRKKREA-NH2
modifications: staple 2-6; N-terminus assumed
SMILES: CC[C@H](C)[C@H](NC(=O)[C@H](CCCNC(=N)N)NC(=O)[C@H](CC(C)C)NC(=O)[C@H](CCC(=O)O)NC(=O)[C@H](CCC(=O)O)NC(=O)[C@H](Cc1c[nH]c2ccccc12)NC(=O)[C@H](CC(C)C)NC(=O)[C@]1(C)CCCC=CCCC[C@](C)(NC(=O)[C@@H](N)CC(C)C)C(=O)N[C@@H](CCCCN)C(=O)N[C@@H](CCC(=O)O)C(=O)N[C@@H](CCC(=O)O)C(=O)N1)C(=O)N[C@@H](CCCCN)C(=O)N[C@H](C(=O)N[C@@H](C)C(=O)N[C@@H](CCC(=O)O)C(=O)N[C@@H](CCCCN)C(=O)N[C@@H](CCCNC(=N)N)C(=O)N[C@@H](CCCCN)C(=O)N[C@@H](CCCCN)C(=O)N[C@@H](CCCNC(=N)N)C(=O)N[C@@H](CCC(=O)O)C(=O)N[C@@H](C)C(N)=O)[C@@H](C)O

Kd [14]: 16.6 µM | Kd [15]: 21.1 µM
B2: FAM-labeled HLR-sol stapled peptide (peptide)
chain: L[S5]KEH[S5]LWEELRIKTAERRKKREA-NH2
modifications: staple 2-6; not fully specified (N-terminus); also: 5-carboxyfluorescein (FAM) label, site not given here

Kd [14]: 19.8 µM | Kd [15]: 24.4 µM
B3: FAM-labeled L-sol stapled peptide (peptide)
chain: L[S5]KEE[S5]LWEELRIKTAEKRKKREA-NH2
modifications: staple 2-6; not fully specified (N-terminus); also: 5-carboxyfluorescein (FAM) label, site not given here

Kd [16]: 3.02 µM | Kd [17]: 6.97 µM
B4: RLIP76 RBD WDASQSR mutant (domain or fragment)
chain: ETQAGIKEEIRRQEFLLNSLHRDLQGGIKDLSKWDRAWEVSQILSALRRKLREA
notes: RLIP76 residues 423-446 (helix α2); Selected by CIS display; source: E. coli, recombinant; cleaved from its tag
